In US20240082302A1 (University of Pennsylvania, published 2024):

T1: human TIM-3 expressed on cells (NB4-TIM3 cells; human AML leukemic stem cells) (human, UniProt Q8TDQ0 22-301)
T1 construct: whole, on cells; also called NB4-expressing human TIM-3
T1 sequence (looked up): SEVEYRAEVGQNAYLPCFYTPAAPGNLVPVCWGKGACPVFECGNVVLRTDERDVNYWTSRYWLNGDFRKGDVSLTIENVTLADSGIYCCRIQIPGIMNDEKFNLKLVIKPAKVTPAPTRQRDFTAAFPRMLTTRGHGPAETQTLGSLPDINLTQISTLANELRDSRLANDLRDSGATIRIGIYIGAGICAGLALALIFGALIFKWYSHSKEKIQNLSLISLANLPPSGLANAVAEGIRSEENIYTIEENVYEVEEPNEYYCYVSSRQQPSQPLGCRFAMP

B1: Anti-TIM3 VHH12 (VHH)
VHH: QVQLQESGGGLVQTGDSLRLSCVVSGGTFRNYVMGWFRQAPGKEREFVSAMNWSGGITVYADSVKGRFTISRDNAKNAVYLQMGSLKPGDTAVYYCAAAAIDGGTVRSINSYAYWGQGTQVTVSS
notes: Llama VHH isolated as a phage display clone (pCOMB3X)
B2: Anti-TIM3 VHH38 (VHH)
VHH: QVQLQESGGGLVQAGDSLRLSCAVGRTFSASTLGWFRQSPGKEREFVAAISWWRGEAYYGDSVKGRFTISRDNTKTTINLQMNSLKPEDTAVYYCARAQFDGATRADDYDNWGQGTQVTVSS
notes: as for B1
B3: Anti-TIM3 VHH13 (VHH)
VHH: QVQLQESGGGLVQAGGSLSLSCAASGRTFKNYLMAWFRQTPGKEREFVAAITQLGTRSLNEDFVKGRFTISRDNAKNTVYLQMNDLKTDDTGVYSCAASLQSGGSLRYAKYDYWGQGTQVTVSS
notes: as for B1
B4: Anti-TIM3 VHH32 (VHH)
VHH: QVQLQESGGGLVQAGGSLNLSCAASGSSFRLYTVGWHRQAPGKQRELVAWISGAGSTNYHSSVKGRFTISRDNAKNTALLQMNNLAPEDTAVYYCNLLNYWGQGTQVTVSS
notes: Llama VHH tested as a phage clone (pCOMB3X phage display) by flow cytometry on cells
B5: Anti-TIM3 VHH30 (VHH)
VHH: QVQLQESGGGLVQAGGSLRLSCAASGFTFGSYVMGWFRQAPGKEREFVASISTSGGITSYADSVKGRFTVSRDNAKNTVYLQMNSLKPEDTAVYYCARDLTYYRTGGRLPDNANGYAYWGQGTQVTVSS
notes: as for B4
B6: Anti-TIM3 VHH33 (VHH)
VHH: QVQLQESGGGLVQPGGSLRLSCAVSGLTPDAYVMGWFRQAPGKEREGVSCISPSGGTTSYPDSVKGRFTISRDNAKNTVYLQMNSLKPEDTGVYYCAAVAGRWCDYGMNYYGKGTQVTVSS
notes: as for B4

Molecular target: T1, human TIM-3 expressed on cells …
Assay: phage display panning/screening on TIM-3 expressing NB4 cells
Source text: To generate VHHs targeting human TIM-3, human recombinant extracellular TIM-3 purified from HEK293 cells was used to immunize llamas, and the resulting VHH phage display libraries were constructed. The phage VHH clones targeting TIM-3 were screened by panning through TIM-3 expressing NB4 cells. The positive clones specifically binding to TIM-3 expressing NB4 cells were isolated. DNA encoding each of the VHHs, including VHH30, 32, and 33, were sequenced. The sequences were consistent with the predicted sequences for VHHs. Each of the VHHs, with both nucleotide and amino acid sequences, are listed below.

**Q.** Does B1 bind?
**A.** binds

**Q.** Does B2 bind?
**A.** binds

**Q.** Does B3 bind?
**A.** binds

Molecular target: T1, human TIM-3 expressed on cells …
Assay: flow cytometry, VHH phage clones on NB4 cells expressing human TIM-3

**Q.** Does B4 bind?
**A.** binds

**Q.** Does B5 bind?
**A.** binds

**Q.** Does B6 bind?
**A.** binds
